# Molecular target: human TNFα (human, UniProt P01375 77-233)
# Experiment: cell-based or functional assay
# Chain of human TNFα (P01375 77-233 limits assumed): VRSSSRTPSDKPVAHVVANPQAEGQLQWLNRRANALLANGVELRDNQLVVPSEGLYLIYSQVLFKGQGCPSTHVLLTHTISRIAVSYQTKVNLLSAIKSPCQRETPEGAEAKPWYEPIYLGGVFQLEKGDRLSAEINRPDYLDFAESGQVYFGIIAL
row,"Ratio of Activities compared to Chimeric Antibody (fold difference, WEHI-164 protection assay at 25 ng/ml)",Binder
1,1.02 fold,"antibody of heavy chain SEQ. ID. No. 7 and light chain SEQ. ID. No. 2 (antibody, human IgG1, V domains shown) VH: EVQLVESGGGLVQPGGSLKLSCAASGFIFSNHWMNWVRQAPGKGLEWVAEIRSKSINSATHYAESVKGRFTISRDDSKSIVYLQMNSLKTEDTGVYYCSRNYYGSTYDYWGQGTTVTVSS VL: DILLTQSPAILSVSPGERVSFSCRASQFVGSSIHWYQQRTNGSPRLLIKYASESMSGIPSRFSGSGSGTDFTLSINTVESEDIADYYCQQSHSWPFTFGSGTNLEVK"
2,1.2 fold,"antibody of heavy chain SEQ. ID. No. 6 and light chain SEQ. ID. No. 2 (antibody, human IgG1, V domains shown) VH: EVQLVESGGGLVQPGGSLKLSCVASGFIFSNHWMNWVRQAPGKGLEWVAEIRSKSINSATHYAESVKGRFTISRDDSKSIVYLQMNSLKTEDTGVYYCSRNYYGSTYDYWGQGTTVTVSS VL: DILLTQSPAILSVSPGERVSFSCRASQFVGSSIHWYQQRTNGSPRLLIKYASESMSGIPSRFSGSGSGTDFTLSINTVESEDIADYYCQQSHSWPFTFGSGTNLEVK"

# Second part, the binder before the results:
row,Binder,"Ratio of Activities compared to Chimeric Antibody (fold difference, WEHI-164 protection assay at 25 ng/ml)"
1,"antibody of heavy chain SEQ. ID. No. 3 and light chain SEQ. ID. No. 2 (antibody, human IgG1, V domains shown) VH: EVQLVESGGGLVQPGGSLKLSCVASGFIFSNHWMNWVRQAPGKGLEWVAEIRSKSINSATHYAESVKGRFTISRDDSKSIVYLQMTDLRTEDTGVYYCSRNYYGSTYDYWGQGTTVTVSS VL: DILLTQSPAILSVSPGERVSFSCRASQFVGSSIHWYQQRTNGSPRLLIKYASESMSGIPSRFSGSGSGTDFTLSINTVESEDIADYYCQQSHSWPFTFGSGTNLEVK",1.38 fold
2,"antibody of heavy chain SEQ. ID. No. 5 and light chain SEQ. ID. No. 2 (antibody, human IgG1, V domains shown) VH: EVQLVESGGGLVQPGGSLKLSCVASGFIFSNHWMNWVRQAPGKGLEWVAEIRSKSINSATHYAESVKGRFTISRDDSKSIVYLQMNDLKTEDTGVYYCSRNYYGSTYDYWGQGTTVTVSS VL: DILLTQSPAILSVSPGERVSFSCRASQFVGSSIHWYQQRTNGSPRLLIKYASESMSGIPSRFSGSGSGTDFTLSINTVESEDIADYYCQQSHSWPFTFGSGTNLEVK",1.24 fold

# Reference: US20080206239A1 (ANTITOPE, published 2008)
